# Measurements: the supplement of paper PMC12042874
# ± gives the uncertainty stated by the source.
# Test: amyloid nucleation score (Sup35N fusion, yeast selection) (log enrichment); library NNK2; higher = more nucleation; inactive = no reads after selection
# Summary of the method: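 Yeast lacking psi expressed peptides of 20 random codons fused to Sup35N, received 100 μM copper sulfate for 24 hours, and were then grown for 7 days at 30°C on medium lacking adenine and uracil. Illumina sequencing of input and output plasmid inserts provided the reads. Nucleation scores are DiMSum log enrichments of output over input, centred on the mode of non-aggregating sequences. Any sequence with under 100 input reads was excluded.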
row,Substance,amyloid nucleation score
1,SLLHPFLTVGVCMCRYGVNI,1.81 ± 0.083
2,SLLLFIYQMDRLVVASMLTN,-0.651 ± 1.1
3,SLLLMDYFLYYYLSVEKRQR,inactive
4,SLLLYYMGGK,5.114 ± 0.042
5,SLMFGLIHSWDMK,inactive
6,SLNLFV,-0.901 ± 0.78
7,SLPCRIISNLYLPA,-1.23 ± 1.1
8,SLPFTLLNKSAHWNSLWFPG,-1.24 ± 1.1
9,SLPIWVRSRVEGLQERISWL,0.364 ± 0.5
10,SLPSRYWVSLFCTSLLW,0.743 ± 0.81
11,SLQSSYEYINPRSLLHCSHL,-1.44 ± 0.49
12,SLQYRTSDSQWYVVYCSQEP,0.484 ± 0.19
13,SLRWL,-0.18 ± 0.74
14,SLRYSMRPMAFRFKHPLAPT,-0.166 ± 0.28
15,SLSLGLSSCEPYYAVC,-0.276 ± 0.28
16,SLSNVLINCVLVFCW,6.53 ± 0.076
17,SLSRLVLECNGKSVRHEKM,0.393 ± 0.32
18,SLVFNQAHWNRLIPTT,-1.02 ± 0.63
19,SLVNYPMKVIGVVRKFW,2.08 ± 0.13
20,SLVVPDRYVNARYCNCCYGG,0.43 ± 0.65
21,SLYCGGQMLD,inactive
22,SMATSSYMLSAMRTCTLRSV,-0.231 ± 0.63

row,Substance,amyloid nucleation score
1,SMFCVPFMINLVLYVMGEVW,0.288 ± 0.64
2,SMILT,-1.11 ± 1.1
3,SMMKLDEYI,-1.17 ± 0.78
4,SMNVDTPCSGRWV,-0.249 ± 1.1
5,SMRVECF,-1.82 ± 1.1
6,SMRYVVISKQRSILEISLRY,3.46 ± 0.047
7,SMSIWSFYIAP,4.59 ± 0.066
8,SMSIYKAAYSFVTGSP,7.475 ± 0.026
9,SMSYTS,0.617 ± 0.14
10,SMTCRDLFSWYGSWYQSILF,0.874 ± 0.47
11,SMYSVYSFYTEIGTL,-0.441 ± 0.48
12,SNAVNCLLCVLTRDLIWMDA,8.958 ± 0.067
13,SNEKVAQSLFAKEREPLRGN,2.35 ± 0.12
14,SNGTWLKNLGGPPPGRAMPW,0.419 ± 0.34
15,SNLNLFITYLTLSTNDR,9.225 ± 0.042
16,SNNAI,0.476 ± 0.56
17,SNNWSLDMRRPVFKPPYGEG,-0.744 ± 0.53
18,SNSDIWHNARHPIDLATYC,0.293 ± 0.61
19,SNSKVSVLIFFSAHKGECAA,inactive
20,SNVSGCMELFNWVGYFPVSP,-0.733 ± 0.62
21,SNVTTYSNVSYIRHHSHYLG,1.32 ± 0.44
22,SNVYYRVC,4.72 ± 0.084

row,Substance,amyloid nucleation score
1,SNYDGPGSYIYEKYCSSEEG,-0.703 ± 1
2,SNYSTGHGAGMEDRRLEMGG,0.717 ± 0.49
3,SNYVSTHRIWFGYSWCKQEK,4.24 ± 0.13
4,SPACLNS,4.58 ± 0.053
5,SPFFVMLIITFTRMVEDLRM,-0.683 ± 1.1
6,SPIYYIKGYFLLISKCFADR,4.56 ± 0.073
7,SPPLYARHCYILERITTDRM,-1.73 ± 0.62
8,SPQLTIYPRMYSRSLVLNRC,0.078 ± 0.77
9,SPSDAL,-0.578 ± 0.36
10,SPTCWRRRTPLIVKYRFISV,1.15 ± 0.34
11,SQGCVICGFYLLWHPNRHCQ,9.447 ± 0.051
12,SQGGIRWY,-0.842 ± 0.38
13,SQIRGESSYYCLPSFSLLFF,6.215 ± 0.057
14,SQSMNGRQMHLYDRPSTGWF,inactive
15,SRCASKFVTWEAYYTVSVKR,0.25 ± 0.8
16,SRFCVRRLTVYRRSV,0.43 ± 0.45
17,SRFISLSSEDVSALNTCNNR,1.25 ± 0.61
18,SRFLARQLLKSASLRLFVET,-0.159 ± 0.35
19,SRFPGCSVSTGRHRTKVSSR,0.177 ± 0.43
20,SRFRGKLCFGWHKYAFGEVF,-0.711 ± 0.79
21,SRICMKWDSSNLWSF,inactive
22,SRIMALTMCFYTNRGRELVN,-1.19 ± 0.38

row,Substance,amyloid nucleation score
1,SRLMVGGQSLVSW,5.716 ± 0.042
2,SRLRNYLKVLSD,-0.474 ± 1.1
3,SRLSKTRLPFWHFMNMLKMP,0.126 ± 0.56
4,SRNLTVNK,-0.072 ± 0.79
5,SRSCVKH,-1.27 ± 0.55
6,SRSKGYLYGIMSAKLRCSLK,0.206 ± 0.39
7,SRWKGSRF,0.764 ± 0.26
8,SRWLGAKCSSRC,-0.361 ± 0.48
9,SRYSFYLRFHVLSVMAVQML,0.688 ± 0.81
10,SSANDNLNTERDQARLVTRC,-0.013 ± 0.36
11,SSASALMKLVMMY,-0.003 ± 0.22
12,SSATFYT,1.43 ± 0.26
13,SSAWLDLDIMLGLFVIVFTP,5.439 ± 0.044
14,SSDNRFCVDDFEVGVCGVMR,2.84 ± 0.07
15,SSDNTQYTETRYSYGFLIKL,0.776 ± 0.56
16,SSFFRISS,-0.907 ± 1
17,SSFWFSGAADINRVVLRGIE,-0.175 ± 0.32
18,SSGLH,0.527 ± 0.8
19,SSHLGTFLSDRGKSWVSGND,-0.569 ± 0.55
20,SSIRKDNRGCAHGGLVVER,0.698 ± 0.44
